Among the data in article PMC12809855, “Biochemical and Mechanistic Insights into O2 Scavenging and Stability of the Soluble Hydrogenase from Hydrogenophaga pseudoflava” (ACS Omega, 2025) are Km and kcat values, retold here.

Substrate in the data set: NC(=O)c1ccc[n+]([C@@H]2O[C@H](COP(=O)(O)OP(=O)(O)OC[C@H]3O[C@@H](n4cnc5c(N)ncnc54)[C@H](O)[C@@H]3O)[C@@H](O)[C@H]2O)c1
Nature of the data set: purified protein. It counts as biochemical, Hydrogenophaga pseudoflava. To be noted: H2-saturated buffer, 50 mM Tris-HCl, no additional salt, pH 7, 30 °C, 1 mM TCEP, 1 μM FMN, kcat apparent.

B1: HpSH (soluble hydrogenase from Hydrogenophaga pseudoflava, HoxFUYH) (Hydrogenophaga pseudoflava) (protein)
chain: MTAFDQPSALHAADAVLARWQHDPHALVQVLRETQAQTHWLPRELLAHIAAALRLTTAHVEGVASFYRFFHLRPVGRVHVLFSDNITDRMAGSDALMARLCARLGVAPGQVDAQGRFCVDRCSCTGLCDQGPALLVNHHQVVTRLDAGRVDQLAERLLAGVPPEDWPADWFAVEDHVRRADVLLQGLPADAPSLPAVLSRTPAELLAEVERSGLRGRGGAGFPTARKWRACAEADAPDGQRCVVCNADEGEPGTFKDRVLLGRHADELFDGMTLAARAIGAQTGLVYLRGEYRFLLPQLEAVLQRRRANGLLGRNAGGVAGFDFDIAIHLGAGAYVCGEESALIESLEGQRGTPRIRPPFPVQRGYLGRPTVVNNVETLVAVAHIARRGGAWWAGLGTPESTGTKIHSVSGDCERPGLYEYPLGTPLAQILADCGARNAQAVQVGGPSGSCVPASGFHRAIAFEDLPSAGALMVFDQTRDLFEVARHFARFFAHESCGLCTPCRVGTELVVRRLDKLAHERGAGRGSAFDIARLQELDALLHSGTHCGLGVSACNPLRDTLAHFGQAYAQRSTAAQFQPGIDLDAELSSARRATGRQDRGAHLNTEHGA
notes: full-length HoxFUYH heterotetramer, N-terminal Strep-tag on HoxF, coexpressed with endopeptidase HoxW (HoxH C-terminally processed), homologous expression in H. pseudoflava from pOCEx1; no HoxI; preparation has excess HoxF; with NAD-reducing hydrogenase HoxS subunit gamma; NAD-reducing hydrogenase HoxS subunit delta; NAD-reducing hydrogenase HoxS subunit beta
A word on the Km: it is the substrate concentration at which the rate is half of its maximum. For orientation: kcat means the maximal rate divided by the concentration of active sites. With B1, the Km stood at 400 ± 140 µM and the kcat worked out at 137 ± 20 s⁻¹.
